Measurements: patent publication US20250283063, “NOVEL CRISPR-CAS12I SYSTEMS AND USES THEREOF” (HUIDAGENE THERAPEUTICS (SINGAPORE) PTE. LTD., published 2025)

How the values were obtained:
hfCas12Max (v6.3) = target: T1, hfCas12Max (v6.3) (N243R,E336R,D892R); experiment: cell_activity; PAM TTTG; OT-1; settings: tags: NLS
T1 chain: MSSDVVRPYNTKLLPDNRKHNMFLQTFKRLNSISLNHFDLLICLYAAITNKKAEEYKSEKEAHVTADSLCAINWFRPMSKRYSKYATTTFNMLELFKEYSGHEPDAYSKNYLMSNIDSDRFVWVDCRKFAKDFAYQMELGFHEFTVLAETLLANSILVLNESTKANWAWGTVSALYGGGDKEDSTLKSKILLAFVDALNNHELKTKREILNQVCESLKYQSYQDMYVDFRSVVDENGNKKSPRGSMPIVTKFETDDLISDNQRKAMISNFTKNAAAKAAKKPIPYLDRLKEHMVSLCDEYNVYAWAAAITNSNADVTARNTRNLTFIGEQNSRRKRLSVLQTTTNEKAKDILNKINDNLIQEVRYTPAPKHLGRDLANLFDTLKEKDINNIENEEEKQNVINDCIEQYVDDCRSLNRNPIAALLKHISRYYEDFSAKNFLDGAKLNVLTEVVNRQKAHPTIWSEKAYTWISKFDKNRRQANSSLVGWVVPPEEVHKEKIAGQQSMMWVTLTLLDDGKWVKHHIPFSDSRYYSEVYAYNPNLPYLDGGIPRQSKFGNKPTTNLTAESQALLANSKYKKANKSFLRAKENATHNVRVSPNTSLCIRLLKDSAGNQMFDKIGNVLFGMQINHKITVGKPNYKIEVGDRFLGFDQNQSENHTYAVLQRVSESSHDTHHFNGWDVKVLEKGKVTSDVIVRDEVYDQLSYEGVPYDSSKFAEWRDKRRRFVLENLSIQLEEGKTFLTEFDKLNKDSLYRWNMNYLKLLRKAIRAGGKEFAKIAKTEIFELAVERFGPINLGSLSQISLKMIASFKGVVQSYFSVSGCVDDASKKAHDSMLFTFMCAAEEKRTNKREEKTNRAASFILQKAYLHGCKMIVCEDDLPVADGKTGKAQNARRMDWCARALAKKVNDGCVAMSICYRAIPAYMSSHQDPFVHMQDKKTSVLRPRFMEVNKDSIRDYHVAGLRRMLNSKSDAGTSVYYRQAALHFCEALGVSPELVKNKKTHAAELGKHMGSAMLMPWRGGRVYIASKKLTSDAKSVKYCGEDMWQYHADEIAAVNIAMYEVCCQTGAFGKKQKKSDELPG
Protocol: (§1) HEK293T cells were cultured in 24-well tissue culture plates according to standard methods for 12 hours, before the reporter and expression plasmids were co-transfected into the cells using standard polyethyleneimine (PEI) transfection. The transfected cells were then cultured at 37° C. under 5% CO₂ for 48 hours. Then the cultured cells were analyzed by flow cytometry for BFP, EGFP, and mCherry fluorescent signals. A “blank” control group was also set up, where only the reporter plasmid was transfected, and no expression plasmid was introduced.
(§2) A dual plasmid fluorescent reporter system for evaluation of off-target dsDNA cleavage activity (off-target reporter system; referring to “Off-Target Reporter” in FIG. 1B) was established, which was similar to the dual plasmid fluorescent reporter system in Example 6 for evaluation of (on-target) dsDNA cleavage activity, except that the insertion sequence of the EGxxxxFP coding sequence contains an TTR off-target protospacer sequence (one of SEQ ID NOs: 127-129) containing one or more mismatches (bold, underlined) with a TTR-targeting spacer sequence (SEQ ID NO: 130) in the gRNA, rather than containing a TTR on-target protospacer sequence (SEQ ID NO: 130; which is the same as SEQ ID NO: 107 in Example 5); DR-T1 sequence (SEQ ID NO: 451) was used. To save drafting, the on-target protospacer sequence/spacer sequence in Table 7 refer to both the protospacer sequence (a DNA sequence) and the corresponding spacer sequence (an RNA sequence) with any “T” in the sequence when referring to a protospacer sequences standing for “T” and when referring to a such spacer sequence standing for “U”, although the assigned SEQ ID NO: 130 in the sequence listing is annotated as DNA.

xCas12i v5.3 = target: T2, xCas12i v5.3 (N243R,D892R); experiment: cell_activity; PAM TTTG; OT-1; settings: tags: NLS
T2 chain: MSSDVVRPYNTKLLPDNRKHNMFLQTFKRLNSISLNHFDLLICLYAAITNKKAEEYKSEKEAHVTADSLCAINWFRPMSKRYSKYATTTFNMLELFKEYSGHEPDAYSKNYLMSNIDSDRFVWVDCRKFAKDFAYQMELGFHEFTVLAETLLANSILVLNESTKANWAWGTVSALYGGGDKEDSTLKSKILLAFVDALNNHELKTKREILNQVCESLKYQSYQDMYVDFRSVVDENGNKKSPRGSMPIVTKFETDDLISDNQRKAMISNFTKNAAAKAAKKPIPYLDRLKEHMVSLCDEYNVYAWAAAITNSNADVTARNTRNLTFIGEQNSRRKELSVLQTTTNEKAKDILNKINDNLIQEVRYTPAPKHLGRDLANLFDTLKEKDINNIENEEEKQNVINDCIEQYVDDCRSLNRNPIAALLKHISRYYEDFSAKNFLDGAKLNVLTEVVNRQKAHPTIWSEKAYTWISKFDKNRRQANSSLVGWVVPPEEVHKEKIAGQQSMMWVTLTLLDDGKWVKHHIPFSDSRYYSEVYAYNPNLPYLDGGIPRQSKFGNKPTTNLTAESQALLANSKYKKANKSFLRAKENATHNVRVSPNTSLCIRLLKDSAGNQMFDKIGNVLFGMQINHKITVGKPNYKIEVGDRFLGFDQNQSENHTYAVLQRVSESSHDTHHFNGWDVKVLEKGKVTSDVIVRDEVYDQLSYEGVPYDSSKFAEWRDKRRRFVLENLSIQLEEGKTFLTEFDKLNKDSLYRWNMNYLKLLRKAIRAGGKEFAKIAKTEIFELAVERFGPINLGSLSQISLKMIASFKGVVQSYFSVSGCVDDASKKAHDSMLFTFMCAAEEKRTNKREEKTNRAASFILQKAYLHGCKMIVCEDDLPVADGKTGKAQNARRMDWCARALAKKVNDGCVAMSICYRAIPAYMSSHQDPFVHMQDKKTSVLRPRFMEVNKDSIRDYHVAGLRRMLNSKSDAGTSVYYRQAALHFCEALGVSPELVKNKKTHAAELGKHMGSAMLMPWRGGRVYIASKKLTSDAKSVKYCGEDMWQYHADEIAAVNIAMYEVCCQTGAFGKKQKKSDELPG
Protocol: as §1, §2

B1: TTR.2 crRNA ; TTR OT.1 (ssRNA ; dsDNA)
RNA: AUGACUCAGAAAUGUGUCCCCAGUUGACACUAGAAGGGAUAUACAAAGUGGA
DNA 1: TTTGTAGAAGGGATATAGAAAGTATC
DNA 2: GATACTTTCTATATCCCTTCTACAAA
- activity (hfCas12Max (v6.3)): 1.55%
- activity (xCas12i v5.3): 6.66%
